{"source": "paper PMC9097459", "molecules": {"B1": {"name": "WT FlSp NT (N-terminal domain of flagelliform spidroin from Nephila clavipes) E79Q; E84Q; E119Q; E130Q (protein)", "chain": "GSGNSASQSPFSNPNTAEAFARSFVSNIVSSGEFGAQGAEDFDDIIQSLIQAQSMGKGRHDTKAKAKAMQVALASSIAQLVIAQSSGGDVQRKTNVISNALRNALMSTTGSPNEEFVHQVQDLIQMLSQQQINEV"}}, "key": {"[1]": {"target": "FlSp NTTrp (Phe 11 to Trp mutant of FlSp NT) (Nephila clavipes)", "assay": "SEC; Superdex 75 Increase 10/300 GL, 200 μl of 2 mg/ml protein, 20 mM MES, 154 mM NaCl, 1 mM EDTA, pH 5.5; apparent MW from calibrants; monomer to dimer"}, "[2]": {"target": "FlSp NT_(E79QE84QE119Q) (Nephila clavipes)", "assay": "SEC-MALS; Superdex 75 Increase 10/300 GL, 50 μg loaded, 20 mM MES, 150 mM NaCl, 1 mM EDTA, pH 5.5, room temperature; monomer to dimer"}, "[3]": {"target": "WT FlSp NT (N-terminal domain of flagelliform spidroin from Nephila clavipes) (Nephila clavipes)", "assay": "SEC-MALS; Superdex 75 Increase 10/300 GL, 50 μg loaded, 20 mM MES, 150 mM NaCl, 1 mM EDTA, pH 5.5, room temperature; monomer to dimer"}, "[4]": {"target": "WT FlSp NT (N-terminal domain of flagelliform spidroin from Nephila clavipes) (Nephila clavipes)", "assay": "SEC; Superdex 75 Increase 10/300 GL, 200 μl of 2 mg/ml protein, 20 mM MES, 154 mM NaCl, 1 mM EDTA, pH 5.5; apparent MW from calibrants; monomer to dimer"}, "[5]": {"target": "FlSp NT* (constitutive monomer mutant, Asp 41 and Lys 65 swapped)", "assay": "SEC-MALS", "conditions": "Superdex 75 increase SEC column"}, "FlSp NT_(E79QE84QE119Q)": {"target": "FlSp NT_(E79QE84QE119Q)", "assay": "SEC-MALS", "conditions": "Superdex 75 increase SEC column"}, "[6]": {"target": "T1, FlSp NT_(E79QE84QE119QE130Q)", "T1 chain": "B1 chain", "assay": "SEC-MALS", "conditions": "chain shown with the change, Superdex 75 increase SEC column"}, "[7]": {"conditions": "pH 5.5 versus pH 8.0, parent: 2.0"}}, "data": [{"molecule": "FlSp NTTrp (Phe 11 to Trp mutant of FlSp NT) (domain or fragment)", "values": [{"measurement": "apparent MW ratio between pH 5.5 and 8.0", "setting": "[1]", "result": 1.2}]}, {"molecule": "FlSp NT_(E79QE84QE119Q) (domain or fragment)", "values": [{"measurement": "MW ratio between pH 5.5 and 8.0", "setting": "[2]", "result": 1.7}]}, {"molecule": "WT FlSp NT (N-terminal domain of flagelliform spidroin from Nephila clavipes) (domain or fragment)", "values": [{"measurement": "stoichiometry N", "setting": "[3]", "result": 2}, {"measurement": "apparent MW ratio between dimer (pH 5.5) and monomer (pH 8.0)", "setting": "[4]", "result": 1.3}]}, {"molecule": "WT FlSp NT (N-terminal domain of flagelliform spidroin from Nephila clavipes) D41K; K65D", "values": [{"measurement": "other: molecular mass by SEC-MALS", "setting": "[5]; pH 5.5, parent: 26.0", "result": 13.4, "unit": "kDa"}, {"measurement": "other: MW ratio between pH 5.5 and pH 8.0", "setting": "[5]; [7]", "result": 1}, {"measurement": "other: molecular mass by SEC-MALS", "setting": "[5]; pH 8.0, parent: 13.1", "result": 14.1, "unit": "kDa"}]}, {"molecule": "WT FlSp NT (N-terminal domain of flagelliform spidroin from Nephila clavipes) E79Q; E84Q; E119Q", "values": [{"measurement": "other: molecular mass by SEC-MALS", "setting": "FlSp NT_(E79QE84QE119Q); pH 5.5, parent: 26.0", "result": 24.4, "unit": "kDa"}, {"measurement": "other: molecular mass by SEC-MALS", "setting": "FlSp NT_(E79QE84QE119Q); pH 8.0, parent: 13.1", "result": 14.3, "unit": "kDa"}]}, {"molecule": "B1", "values": [{"measurement": "other: molecular mass by SEC-MALS", "setting": "[6]; pH 5.5, parent: 26.0", "result": 20.7, "unit": "kDa"}, {"measurement": "other: MW ratio between pH 5.5 and pH 8.0", "setting": "[6]; [7]", "result": 1.6}, {"measurement": "other: molecular mass by SEC-MALS", "setting": "[6]; pH 8.0, parent: 13.1", "result": 13.1, "unit": "kDa"}]}]}
